Measurements reported in paper PMC5111828.
Each block holds one substance with its values, some of them ahead of it.

Columns and labels:
Hsp70 Alexa Fluor 488 = Hsp70 Alexa Fluor 488 (UniProt P0DMV8); experiment: cross-linking
[1] = biological target: Bcl-2 associated athanogene 3 (Bag3) (UniProt O95817); experiment: cross-linking
[2] = biological target: Bcl-2 associated athanogene 3 (Bag3) (UniProt O95817); experiment: flow cytometry protein interaction assay
Hsp90 (Homo sapiens) = Hsp90 (Homo sapiens) (UniProt P07900); experiment: size exclusion chromatography; settings: cited from earlier work
Bag3 (Homo sapiens) [3] = biological target: Bag3 (Homo sapiens) (UniProt O95817); experiment: ITC; settings: cited from earlier work
Bag3 (Homo sapiens) [4] = biological target: Bag3 (Homo sapiens) (UniProt O95817); experiment: APCE; settings: cited from earlier work

Sequence of Hsp70 (P0DMV8 2-641): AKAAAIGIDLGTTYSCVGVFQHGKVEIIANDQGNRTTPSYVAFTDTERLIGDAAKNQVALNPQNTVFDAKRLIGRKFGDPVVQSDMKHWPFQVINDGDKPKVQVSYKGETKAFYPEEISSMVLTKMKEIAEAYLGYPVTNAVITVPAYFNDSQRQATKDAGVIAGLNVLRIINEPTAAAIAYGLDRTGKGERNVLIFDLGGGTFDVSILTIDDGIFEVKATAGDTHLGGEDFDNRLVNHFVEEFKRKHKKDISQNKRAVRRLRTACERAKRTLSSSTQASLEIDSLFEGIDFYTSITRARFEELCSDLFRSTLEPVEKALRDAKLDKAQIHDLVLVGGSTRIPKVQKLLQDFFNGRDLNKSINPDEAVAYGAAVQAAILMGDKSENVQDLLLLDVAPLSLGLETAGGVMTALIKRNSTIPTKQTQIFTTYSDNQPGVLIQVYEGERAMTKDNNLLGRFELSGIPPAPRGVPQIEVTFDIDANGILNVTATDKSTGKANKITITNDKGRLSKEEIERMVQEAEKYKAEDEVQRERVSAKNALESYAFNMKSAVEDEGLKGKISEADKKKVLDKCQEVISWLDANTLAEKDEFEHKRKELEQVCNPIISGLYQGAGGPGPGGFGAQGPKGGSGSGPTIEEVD

Kd (Hsp70 Alexa Fluor 488): 0.025 µM
Substance: Bcl-2 associated athanogene 3 (Bag3) (from UniProt O95817 1-575) (natural protein)

Ki [1]: 0.4 µM
Substance: Hsp70 R,R 258,262 A,A (from UniProt P0DMV8 1-641) (natural protein)

Ki [2]: 0.015 µM
Substance: unlabeled Hsp70 (Wild-Type) (from UniProt P0DMV8 1-641) (natural protein)

Substance: Hsp90 (from UniProt P07900)
Kd (Hsp90 (Homo sapiens)): 0.06 µM

Ki [1]: 0.16 µM
Substance: Hsp70 E,D 283, 292 A,A (from UniProt P0DMV8 1-641) (natural protein)

Substance: Hsp70 (from UniProt P0DMV8)
Kd (Bag3 (Homo sapiens) [3]): 0.015 µM
Kd (Bag3 (Homo sapiens) [4]): 0.023 µM
